Assay results taken from US20250171562A1 (ALK ABELL, published 2025).

Biological target: T1, recombinant human IgE (human, UniProt P01854-1 1-428)
T1 construct: made in-house (ALK); preloaded on immobilised FcεRIα in the displacement ELISA
Assay: IgE-FcεRIα displacement ELISA
Procedure, shortened: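 Streptavidin-coated plates carried site-specifically biotinylated recombinant human FcεRIα, loaded with recombinant human IgE at 13 ng/ml. sdAbs in a pM–μM series were added for 1 h, and displaced IgE was washed off. Percent displacement was the signal reduction versus the no-sdAb control, giving EC50 and maximal effect.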

T1 sequence (P01854 other isoform, or with tags, fused parts or gaps): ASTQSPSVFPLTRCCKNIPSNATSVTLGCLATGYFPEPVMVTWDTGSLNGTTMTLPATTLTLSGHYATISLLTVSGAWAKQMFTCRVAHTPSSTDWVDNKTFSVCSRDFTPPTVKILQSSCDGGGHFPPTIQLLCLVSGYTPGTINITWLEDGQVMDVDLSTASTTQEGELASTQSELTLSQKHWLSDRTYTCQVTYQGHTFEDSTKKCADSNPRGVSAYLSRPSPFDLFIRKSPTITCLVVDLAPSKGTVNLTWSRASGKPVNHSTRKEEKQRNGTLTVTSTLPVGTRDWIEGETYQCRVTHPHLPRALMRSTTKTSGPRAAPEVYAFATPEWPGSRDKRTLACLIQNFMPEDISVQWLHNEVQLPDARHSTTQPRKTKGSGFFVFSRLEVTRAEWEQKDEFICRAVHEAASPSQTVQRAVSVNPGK

| Binder | EC50 [nM] | Max effect [%] |
| --- | --- | --- |
| CIgG4D2A1(G4S)1 (Fc fusion) chain 1: GPPCPPCPAPEFLGGPSVFLFPPKPKDTLMISRTPEVTCVVVDVSQEDPEVQFNWYVDGVEVHNAKTKPREEQFNSTYRVVSVLTVLHQDWLNGKEYKCKVSNKGLPSSIEKTISKAKGQPREPQVYTLPPCQEEMTKNQVSLWCLVKGFYPSDIAVEWESNGQPENNYKTTPPVLDSDGSFFLYSRLTVDKSRWQEGNVFSCSVMHEALHNHYTQKSLSLSLGKGGGGSDVQLQESGGGLVEAGGSLRLSCVASGRTFSGWSMGWFRQAPGKEREFVAAISWVGSWIGGTVYSNSVKGRFTISRDNARTTVYLQMNSLKPEDTAVYFCAAANSETPRIFASEYDYWGQGTQVTVS chain 2: GPPCPPCPAPEFLGGPSVFLFPPKPKDTLMISRTPEVTCVVVDVSQEDPEVQFNWYVDGVEVHNAKTKPREEQFNSTYRVVSVLTVLHQDWLNGKEYKCKVSNKGLPSSIEKTISKAKGQPREPQVCTLPPSQEEMTKNQVSLSCAVKGFYPSDIAVEWESNGQPENNYKTTPPVLDSDGSFFLVSRLTVDKSRWQEGNVFSCSVMHEALHNHYTQKSLSLSLGKGGGGSEVQLLESGGGLVQPGGSLRLSCAASGFTFGNYDMAWVRQAPGKRPEWVSSIDTGGDITHYADSVKGRFTISRDNAKNTLYLQMNSLRPEDTAVYWCATDEEYALGPNEFDYYGQGTLVTVSS | 25 | > 95 |
| CIgG4D1A1(G4S)2 (Fc fusion) chain 1: GPPCPPCPAPEFLGGPSVFLFPPKPKDTLMISRTPEVTCVVVDVSQEDPEVQFNWYVDGVEVHNAKTKPREEQFNSTYRVVSVLTVLHQDWLNGKEYKCKVSNKGLPSSIEKTISKAKGQPREPQVYTLPPCQEEMTKNQVSLWCLVKGFYPSDIAVEWESNGQPENNYKTTPPVLDSDGSFFLYSRLTVDKSRWQEGNVFSCSVMHEALHNHYTQKSLSLSLGKGGGGSGGGGSDVQLQESGGGLVQAGGSLRLSCAASGLTFSRCDMGWFRQAPGKEREFVARISANGASTHYADFVKGRFTISRDNAKNTVYLQMNYLKPEDTAVYICAAARVPVTWQLYDYWGQGTQVTVS chain 2: GPPCPPCPAPEFLGGPSVFLFPPKPKDTLMISRTPEVTCVVVDVSQEDPEVQFNWYVDGVEVHNAKTKPREEQFNSTYRVVSVLTVLHQDWLNGKEYKCKVSNKGLPSSIEKTISKAKGQPREPQVCTLPPSQEEMTKNQVSLSCAVKGFYPSDIAVEWESNGQPENNYKTTPPVLDSDGSFFLVSRLTVDKSRWQEGNVFSCSVMHEALHNHYTQKSLSLSLGKGGGGSGGGGSEVQLLESGGGLVQPGGSLRLSCAASGFTFGNYDMAWVRQAPGKRPEWVSSIDTGGDITHYADSVKGRFTISRDNAKNTLYLQMNSLRPEDTAVYWCATDEEYALGPNEFDYYGQGTLVTVSS | 30 | > 95 |
| CIgG4D2A1(RS) (Fc fusion) chain 1: GPPCPPCPAPEFLGGPSVFLFPPKPKDTLMISRTPEVTCVVVDVSQEDPEVQFNWYVDGVEVHNAKTKPREEQFNSTYRVVSVLTVLHQDWLNGKEYKCKVSNKGLPSSIEKTISKAKGQPREPQVYTLPPCQEEMTKNQVSLWCLVKGFYPSDIAVEWESNGQPENNYKTTPPVLDSDGSFFLYSRLTVDKSRWQEGNVFSCSVMHEALHNHYTQKSLSLSLGKRSDVQLQESGGGLVEAGGSLRLSCVASGRTFSGWSMGWFRQAPGKEREFVAAISWVGSWIGGTVYSNSVKGRFTISRDNARTTVYLQMNSLKPEDTAVYFCAAANSETPRIFASEYDYWGQGTQVTVS chain 2: GPPCPPCPAPEFLGGPSVFLFPPKPKDTLMISRTPEVTCVVVDVSQEDPEVQFNWYVDGVEVHNAKTKPREEQFNSTYRVVSVLTVLHQDWLNGKEYKCKVSNKGLPSSIEKTISKAKGQPREPQVCTLPPSQEEMTKNQVSLSCAVKGFYPSDIAVEWESNGQPENNYKTTPPVLDSDGSFFLVSRLTVDKSRWQEGNVFSCSVMHEALHNHYTQKSLSLSLGKRSEVQLLESGGGLVQPGGSLRLSCAASGFTFGNYDMAWVRQAPGKRPEWVSSIDTGGDITHYADSVKGRFTISRDNAKNTLYLQMNSLRPEDTAVYWCATDEEYALGPNEFDYYGQGTLVTVSS |  | 35 |

Continued by falling EC50, values first:

| EC50 [nM] | Max effect [%] | Binder |
| --- | --- | --- |
| 14 | > 95 | CIgG4D1A1(G4S)3 (Fc fusion) chain 1: GPPCPPCPAPEFLGGPSVFLFPPKPKDTLMISRTPEVTCVVVDVSQEDPEVQFNWYVDGVEVHNAKTKPREEQFNSTYRVVSVLTVLHQDWLNGKEYKCKVSNKGLPSSIEKTISKAKGQPREPQVYTLPPCQEEMTKNQVSLWCLVKGFYPSDIAVEWESNGQPENNYKTTPPVLDSDGSFFLYSRLTVDKSRWQEGNVFSCSVMHEALHNHYTQKSLSLSLGKGGGGSGGGGSGGGGSDVQLQESGGGLVQAGGSLRLSCAASGLTFSRCDMGWFRQAPGKEREFVARISANGASTHYADFVKGRFTISRDNAKNTVYLQMNYLKPEDTAVYICAAARVPVTWQLYDYWGQGTQVTVS chain 2: GPPCPPCPAPEFLGGPSVFLFPPKPKDTLMISRTPEVTCVVVDVSQEDPEVQFNWYVDGVEVHNAKTKPREEQFNSTYRVVSVLTVLHQDWLNGKEYKCKVSNKGLPSSIEKTISKAKGQPREPQVCTLPPSQEEMTKNQVSLSCAVKGFYPSDIAVEWESNGQPENNYKTTPPVLDSDGSFFLVSRLTVDKSRWQEGNVFSCSVMHEALHNHYTQKSLSLSLGKGGGGSGGGGSGGGGSEVQLLESGGGLVQPGGSLRLSCAASGFTFGNYDMAWVRQAPGKRPEWVSSIDTGGDITHYADSVKGRFTISRDNAKNTLYLQMNSLRPEDTAVYWCATDEEYALGPNEFDYYGQGTLVTVSS |
| 7 | > 95 | CIgG4D2A1(G4S)2 (Fc fusion) chain 1: GPPCPPCPAPEFLGGPSVFLFPPKPKDTLMISRTPEVTCVVVDVSQEDPEVQFNWYVDGVEVHNAKTKPREEQFNSTYRVVSVLTVLHQDWLNGKEYKCKVSNKGLPSSIEKTISKAKGQPREPQVYTLPPCQEEMTKNQVSLWCLVKGFYPSDIAVEWESNGQPENNYKTTPPVLDSDGSFFLYSRLTVDKSRWQEGNVFSCSVMHEALHNHYTQKSLSLSLGKGGGGSGGGGSDVQLQESGGGLVEAGGSLRLSCVASGRTFSGWSMGWFRQAPGKEREFVAAISWVGSWIGGTVYSNSVKGRFTISRDNARTTVYLQMNSLKPEDTAVYFCAAANSETPRIFASEYDYWGQGTQVTVS chain 2: GPPCPPCPAPEFLGGPSVFLFPPKPKDTLMISRTPEVTCVVVDVSQEDPEVQFNWYVDGVEVHNAKTKPREEQFNSTYRVVSVLTVLHQDWLNGKEYKCKVSNKGLPSSIEKTISKAKGQPREPQVCTLPPSQEEMTKNQVSLSCAVKGFYPSDIAVEWESNGQPENNYKTTPPVLDSDGSFFLVSRLTVDKSRWQEGNVFSCSVMHEALHNHYTQKSLSLSLGKGGGGSGGGGSEVQLLESGGGLVQPGGSLRLSCAASGFTFGNYDMAWVRQAPGKRPEWVSSIDTGGDITHYADSVKGRFTISRDNAKNTLYLQMNSLRPEDTAVYWCATDEEYALGPNEFDYYGQGTLVTVSS |
| 4.8 | > 95 | CIgG4D2A1(G4S)3 (Fc fusion) chain 1: GPPCPPCPAPEFLGGPSVFLFPPKPKDTLMISRTPEVTCVVVDVSQEDPEVQFNWYVDGVEVHNAKTKPREEQFNSTYRVVSVLTVLHQDWLNGKEYKCKVSNKGLPSSIEKTISKAKGQPREPQVYTLPPCQEEMTKNQVSLWCLVKGFYPSDIAVEWESNGQPENNYKTTPPVLDSDGSFFLYSRLTVDKSRWQEGNVFSCSVMHEALHNHYTQKSLSLSLGKGGGGSGGGGSGGGGSDVQLQESGGGLVEAGGSLRLSCVASGRTFSGWSMGWFRQAPGKEREFVAAISWVGSWIGGTVYSNSVKGRFTISRDNARTTVYLQMNSLKPEDTAVYFCAAANSETPRIFASEYDYWGQGTQVTVS chain 2: GPPCPPCPAPEFLGGPSVFLFPPKPKDTLMISRTPEVTCVVVDVSQEDPEVQFNWYVDGVEVHNAKTKPREEQFNSTYRVVSVLTVLHQDWLNGKEYKCKVSNKGLPSSIEKTISKAKGQPREPQVCTLPPSQEEMTKNQVSLSCAVKGFYPSDIAVEWESNGQPENNYKTTPPVLDSDGSFFLVSRLTVDKSRWQEGNVFSCSVMHEALHNHYTQKSLSLSLGKGGGGSGGGGSGGGGSEVQLLESGGGLVQPGGSLRLSCAASGFTFGNYDMAWVRQAPGKRPEWVSSIDTGGDITHYADSVKGRFTISRDNAKNTLYLQMNSLRPEDTAVYWCATDEEYALGPNEFDYYGQGTLVTVSS |
